# Experimental data from the RNAGym collection of RNA variant scans (doi:10.7554/elife.80360).
# B1: Hairpin Ribozyme (parent)
# chain: GUCCUCUUUCACGUGCGCGUGAAAGAGAGAAGUGAACCAGAGAAACACACGUUGUGGUAUAUUACCUGGUA
# Variants of: B1
# Experiment: self-cleavage, relative activity (ratio to wild type); higher = more cleavage; co-transcriptional
row,Variant,self-cleavage
1,G1C A28U,0.247
2,G1C C3U,0.18
3,U2A C38U,0.14
4,G1U A22U,0.119
5,G1U A22G,0.101
6,G1A G17A,0.0844
7,G1A G17U,0.127
8,G1A A30G,0.231
9,G1A A30C,0.291
10,U2C A24U,0.107
11,U2C A24C,0.227
12,G1A G54A,0.191
13,G1A G54U,0.153
14,U2C G56C,0.166
15,G1C G34C,0.211
16,G1C G34A,0.162
17,U2C A43G,0.167
18,U2A U67G,0.158
19,U2A U67C,0.0778
20,U2C C3A,0.114
21,G1C C6A,0.245
22,U2A G32A,0.0985
23,G1A G40U,0.123
24,G1A G40C,0.167

row,Variant,self-cleavage
1,G1A G40A,0.199
2,G1U U53G,0.227
3,G1A U52A,0.155
4,U2C U14G,0.075
5,G1A A45G,0.0977
6,G1A A45C,0.0307
7,G1A A41U,0.225
8,U2A U63G,0.0633
9,G1A C6G,0.193
10,G1A C6U,0.195
11,G1U A26G,0.314
12,G1U A35U,0.126
13,G1C A71U,0.153
14,G1C A71C,0.328
15,G1C C16U,0.198
16,G1A C46A,0.134
17,U2C A36G,0.212
18,G1U U60C,0
19,G1U U60A,0.195
20,G1A U55A,0.229
21,G1A U55C,0.243
22,G1U A64G,0.0823
23,G1A C10U,0.235
24,G1A C4U,0.241

row,Variant,self-cleavage
1,G1U C37A,0.158
2,G1U C37G,0.0694
3,G1U C37U,0.0964
4,U2A G27U,0.124
5,G1C A61C,0.249
6,G1C A61U,0.126
7,G1C A61G,0.202
8,U2A A49U,0.0799
9,G1C C12G,0.188
10,G1C C12U,0.213
11,G1C C12A,0.215
12,G1A A64U,0.272
13,G1A A64G,0.187
14,U2C A23G,0.116
15,U2C A23U,0.185
16,U2A U62C,0.0796
17,U2A U62A,0.194
18,G1U A71G,0.115
19,G1A A22U,0.109
20,G1A A22C,0.11
21,G1A G51C,0.0527
22,G1A G57C,0.163
23,U2A A59G,0.156
24,U2A A59U,0.141

row,Variant,self-cleavage
1,U2A A59C,0.0974
2,U2A G29C,0.105
3,U2A G29A,0.0918
4,G1U A31U,0.0996
5,G1U A59U,0.195
6,G1U A59C,0.183
7,G1U U62C,0.172
8,G1U U62G,0.163
9,U2A C3G,0.127
10,U2C C46G,0.0408
11,G1C G69C,0.303
12,U2A U53C,0.292
13,U2A U53A,0.303
14,G1A C18G,0.0949
15,G1A C18A,0.185
16,U2A U55A,0.103
17,G1C U9G,0.125
18,G1C U9A,0.117
19,U2A U52G,0.203
20,G1A A59G,0.237
21,G1A A59C,0.22
22,G1U U5C,0
23,G1U C46G,0.16
24,G1U C46U,0.0565

row,Variant,self-cleavage
1,G1A U2C,0.899
2,G1A U2G,0.895
3,U2A A23U,0.167
4,G1A G34A,0.18
5,U2A A64G,0.0976
6,U2C A22U,0.296
7,G1C U67A,0.109
8,U2A U70A,0.331
9,U2A U70G,0.224
10,G1U U7C,0.0995
11,U2A A43G,0.138
12,G1C A23G,0.132
13,U2A A22G,0.175
14,U2A A22C,0.341
15,G1A C48A,0.156
16,G1A C48U,0.0691
17,G1U C18U,0.121
18,U2A U9G,0.179
19,U2A U9C,0.233
20,G1C G25U,0.211
21,G1U G56C,0.229
22,U2C C4U,0.0249
23,U2C C4G,0.0947
24,U2C C4A,0.1

row,Variant,self-cleavage
1,U2C U8C,0.236
2,U2A A26U,0.253
3,G1A U14A,0.127
4,U2C A31G,0
5,U2C A31U,0.25
6,G1A A47C,0.124
7,G1A A47G,0.123
8,G1A U8G,0.158
9,G1C A22U,0.103
10,G1U C48U,0.155
11,U2C G54A,0.134
12,G1A G68A,0.21
13,G1A G68U,0.176
14,U2A G69U,0.151
15,G1A C38U,0.115
16,G1A U33A,0.175
17,G1A U33C,0.0709
18,G1C A30C,0.207
19,G1U C65A,0.0897
20,G1U A30G,0.105
21,U2C G29A,0.0747
22,U2A G21U,0.271
23,U2C U52G,0.0756
24,U2C U52C,0.0386

row,Variant,self-cleavage
1,U2C U52A,0.287
2,G1A U62A,0.192
3,G1C C37A,0.0534
4,G1C C37G,0.0832
5,G1U C4A,0.202
6,G1U G32C,0.0843
7,G1U G32A,0.146
8,U2C U5A,0.118
9,U2C G57A,0.175
10,U2C C37U,0.113
11,G1C U33A,0.0439
12,G1C G54A,0.141
13,G1C C10A,0.102
14,G1U G34C,0.143
15,U2C G69U,0.114
16,G1C U14G,0.101
17,G1C C66U,0.12
18,G1C C66A,0.351
19,G1C A31U,0.163
20,G1C A31G,0.187
21,U2A A39U,0.127
22,U2A C65A,0.222
23,G1C U5C,0.361
